Data on one protein can be found in paper PMC5053136 (Acta Crystallographica. Section D, Structural Biology, 2016).

This data set deals with the molecule itself. As to the kind of experiment: SAXS with online ion-exchange chromatography (IEC-SAXS).

B1: D5_(323–785), the D5N and helicase domains of the Vaccinia virus helicase–primase D5 (domain or fragment)
chain: GNKLFNIAQRILDTNSVLLTERGDYIVWINNSWKFNSEEPLITKLILSIRHQLPKEYSSELLCPRKRKTVEANIRDMLVDSVETDTYPDKLPFKNGVLDLVDGMFYSGDDAKKYTCTVSTGFKFDDTKFVEDSPEMEELMNIINDIQPLTDENKKNRELYEKTLSSCLCGATKGCLTFFFGETATGKSTTKRLLKSAIGDLFVETGQTILTDVLDKGPNPFIANMHLKRSVFCSELPDFACSGSKKIRSDNIKKLTEPCVIGRPCFSNKINNRNHATIIIDTNYKPVFDRIDNALMRRIAVVRFRTHFSQPSGREAAENNDAYDKVKLLDEGLDGKIQNNRYRFAFLYLLVKWYKKYHVPIMKLYPTPEEIPDFAFYLKIGTLLVSSSVKHIPLMTDLSKKGYILYDNVVTLPLTTFQQKISKYFNSRLFGHDIESFINRHKKFANVSDEYLQYIFIEDISSP
notes: also called D5R fragment
Consider B1, for which the “stoichiometry N” value turned out to be 6.
